According to patent publication US7838288B2, “Modulators of odorant receptors” (Duke University, priority 2004, dated 2010):

Tests used:
[1] = test system: MOR203-1; assay: Co-immunoprecipitation with HA-tagged MOR203-1; assay type: binding, mouse; details: Flag-tagged protein, 293T cells, HA-MOR203-1 precipitated
Method: Given the ability of REEP and/or RTP to promote cell-surface expression of ORs, it was hypothesized that they may also interact with OR proteins. This was assessed using co-immunoprecipitation assays. HA-tagged MOR203-1 and Flag-tagged REEP1, RTP1 or ICAP-1, a negative control (see, e.g., Zawistowski, J. S., et al. (2002) Hum Mol Genet. 11, 389-396; herein incorporated by reference in its entirety) were transfected in 293T cells. After the cell extracts were precipitated with anti-Flag antibodies, proteins were eluted in SDS-sample buffer at room temperature whereupon western blotting analysis was performed to detect the OR proteins. OR proteins were detected as high molecular weight bands after precipitation of REEP1 or RTP1 (see FIG. 7B, lanes 1 and 2). […] The present invention is not limited to a particular mechanism. Indeed, an understanding of the mechanism is not necessary to practice the present invention.
293T cells in 100 mm dishes were transfected with ORs, REEP1, and/or RTP1 cDNAs. 16 hours after transfection, cells were lysed in lysis buffer (50 mM Tris (7.4), 150 mM NaCl, 1% NP-40, 0.5 mM PMSF, 2 mM Benzamidene, 0.5 ug/ml Leupeptin, 1.4 ug/ml pepstatin A, 2.4 ug/ml chymostatin, 15 ug/ml aprotinin, 1 mM sodium orthovanadate). The lysis were incubated with anti-Flag M2 affinity gel (Sigma) or anti-HA affinity matrix (Roche) for 2 hours at 4 degrees C. and washed with lysis buffer. Subsequently, the bound proteins were eluted by incubation with SDS sample buffer at room temperature for 2 hours. SDS-PAGE and western blotting were performed according to Mini-Protean 3 Cell (Bio-Rad) instruction manual. ECL (Amersham) was used for detecting proteins on membranes.

[2] = test system: olfr62; assay: Living-cell staining of cell-surface olfr62; assay type: cell-based, mouse
Method: The proteins encoded by these clones were named REEP1, for Receptor Expression Enhancing Protein 1 and RTP1, for Receptor Transporting Protein 1. Subsequently, RTP2 was found, a close relative of RTP1. […] Next, REEP1, RTP1, and RTP2 were tested to detect a similar effect in promoting cell-surface expression of other ORs. Four different ORs (mouse OREG, mouse olfr62, mouse OR-S46 and rat I7) were expressed in 293T cells with or without REEP1, RTP1, or RTP2. […] Additionally, ORs transfected with REEP and/or RTP generated more immunofluorescent cells and stronger signals in positive cells compared with ORs without REEP and/or RTP (see FIG. 2A). The signal intensity and the number of immunopositive cells varied when using different ORs at each condition. […] Nonetheless, occasional immunopositive cells were observed only when the accessory proteins were co-expressed. The effects of RTP1 or RTP2 were consistently more robust than that of REEP1. The enhancement of cell-surface expression was specific for ORs and not for other GPCRs: neither REEP and/or RTP enhanced expression of the β2 adrenergic receptor, mT2R5 (a mouse bitter taste receptor) (see, e.g., Chandrashekar, J., et al. (2000) Cell 100, 703-711; herein incorporated by reference in its entirety), or a V2R pheromone receptor (VR4) (see, e.g., Matsunami, H., and Buck, L. B. (1997) Cell 90, 775-784; herein incorporated by reference in its entirety) (see FIG. 2A and FIG. 3). Finally, enhancement of cell-surface expression of MOR203-1 was not observed when other members of the REEP and RTP families (REEP2 and RTP4) were co-expressed.
293T cells were maintained in minimal essential medium containing 10% fetal bovine serum (M10). Lipofectamine 2000 (Invitrogen) was used for transfection. In live-cell staining, 16 hours after transfection, cells were incubated in M10 containing anti rhodopsin antibody, 4D2 (see, e.g., Laird, D. W., and Molday, R. S. (1988) Invest Opthalmol V is Sci 29, 419-428; herein incorporated by reference in its entirety) and 15 mM NaN3 at 4 degrees C. for 1 hour. After washing, cells were incubated with Cy3-conjugated anti mouse IgG (Jackson Immunologicals), washed and mounted. For FACS analysis, 4D2 and PE-conjugated anti mouse IgG (Jackson Immunologicals) were used to monitor the Rho tagged receptor expression. Anti HA rabbit antibodies (Sigma) and Alexa 488 conjugated anti rabbit IgG (Molecular Probes) was used to stain the HA-β2 adrenergic receptor. To establish the Hana3a cells, 1 ug/ml of puromycin was used for selection. 96 colonies were picked and assayed using luciferase assay using OREG.

[3] = test system: olfr62; assay: CRE-luciferase reporter gene assay, olfr62; assay type: cell-based, mouse; details: 293T cells and Hana3A cells expressing RTP1 variant
Method: Four ORs (S6/79, S18, S46 and S50) previously assayed using other techniques (see, e.g., Malnic, B., et al. (1999) Cell 96, 713-723; herein incorporated by reference in its entirety) were tested against an assay panel of aliphatic alcohols, aldehydes and acids and some other odorants. Additionally, five “orphan” class I ORs (MOR23-1, MOR31-4, MOR31-6, MOR32-5 and MOR32-11) whose cognate ligands were unknown were tested. At a suprathreshold concentration of 100 uM, all these ORs were odorant selective, responding to only a small subset of the odorants tested (see FIG. 11A). This specificity was retained at lower, more physiologically relevant concentrations. Many of these ORs responded to odorants present in micromolar concentrations. The cell-surface expression of these ORs by living-cell immunofluorescence were evaluated. Some ORs (S18, MOR31-4, MOR31-6 and MOR32-5) were strongly expressed while other ORs (S6, S50, MOR23-1, MOR32-11) were weakly expressed (see FIG. 12). The present invention is not limited to a particular mechanism. Indeed, an understanding of the mechanism is not necessary to practice the present invention. […] Finally, two additional orphan class II ORs, MOR203-1 and olfr62, were tested against a panel of 139 odorants. […] Olfr62 responded to coumarine and piperonal (see FIG. 11C). […] When parental 293T cells for these ORs were used in this luciferase assay, little or no response to the odorants was observed. The present invention is not limited to a particular mechanism. Indeed, an understanding of the mechanism is not necessary to practice the present invention.
Dual-Glo system (Promega) for luciferase assay was used. CRE-Luciferase (Stratagene) was used to measure the receptor activities. Renilla luciferase driven by constitutively active SV40 promoter (pRL-SV40: Promega) was used as an internal control. Cells were plated on poly-D-lysine coated 96 well plates (BIOCOAT, Beckton Dickinson). After 8 hours (for experiments shown in FIGS. 8B and 8C) or 12 hours (for experiments shown in FIG. 8D and FIG. 11) after transfection, the medium was replaced with CD293 chemically defined medium (Invitrogen) and the plates were incubated for one hour at 37 degrees C. The medium was replaced with 50 ul of odorant solutions dissolved in CD293 and incubated for 10 hours (for experiments shown in FIGS. 8B and 8C) or 4 hours (for experiments shown in FIG. 8D and FIG. 11) at 37 degrees C. The manufacture's protocol for measuring luciferase and Renilla luciferase activities was followed. Luminescence was measured using Wallac Victor 1420 (Perkin-Elmer). Normalized luciferase activity was calculated as [Luc (N)-Luc (0)]/RL (N), where Luc (N)=Luminescent count of a certain well, Luc (0)=Luminescent count without odorant for each OR, and RL (N)=Luminescent count of Renilla Luciferase of each well. For cAMP assays, cells were plated onto 24-well plate. […]. Prism software (Graphpad) was used for data analysis. […]

[4] = accessory protein co-transfected in 293T cells

B1: ICAP-1: a negative control protein, Flag-tagged (protein, UniProt O14713 1-200, looked up)
Integrin beta-1-binding …: MFRKGKKRHSSSSSQSSEISTKSKSVDSSLGGLSRSSTVASLDTDSTKSSGQSNNNSDTCAEFRIKYVGAIEKLKLSEGKGLEGPLDLINYIDVAQQDGKLPFVPPEEEFIMGVSKYGIKVSTSDQYDVLHRHALYLIIRMVCYDDGLGAGKSLLALKTTDASNEEYSLWVYQCNSLEQAQAICKVLSTAFDSVLTSEKP
modifications: Flag tag
notes: a negative control protein, Flag-tagged
- co-precipitation with HA-MOR203-1 [1]: not detectable

B2: RTP1-D: RTP1 variant generated by deleting portions of RTP1; murine SEQ ID NO: 44 (protein, listed as Mus musculus)
chain: MRIFRPWRLRCPALHLPSFPTFSIKCSLPPLPTDEDMCKSVTTGEWKKVFYEKMEEVKPADSWDFIIDPNLKHNVLAPGWKQYLELHASGRFHCSWCWHTWQSPHVVILFHMYLDKAQRAGSVRMRVFKQLCYECGTARLDESSMLEENIESLVDNLITSLREQCYGERGGHYRIHVASRQDNRRHRGEFCEACQEGIVHWKPSEKLLEEEATTYTFSRAPSPTKPQAETGSGC
- cell-surface expression of olfr62 ([2]; RTP1 variant cDNA transfected into Hana3A cells or 293T cells): Increased cell-surface staining
- OLFR62 activity as indicated by luciferase expression [3]: Increased enhancement

B3: RTP1-D1: RTP1 variant from deleting portions of RTP1-D; murine SEQ ID NO: 48 (protein, listed as Mus musculus)
chain: MRIFRPWRLRCPALHLPSFPTFSIKCSLPPLPTDEDMCKSVTTGEWKKVFYEKMEEVKPADSWDFIIDPNLKHNVLAPGWKQYLELHASGRFHCSWCWHTWQSPHVVILFHMYLDKAQRAGSVRMRVFKQLCYECGTARLDESSMLEENIESLVDNLITSLREQCYGERGGHYRIHVASRQDNRRHRGEFCEACQEGIVHWKPSEKLLEEEA
- cell-surface expression of olfr62 [2, 4]: Increased cell-surface staining

B4: RTP1-D3: RTP1 variant from deleting portions of RTP1-D; murine SEQ ID NO: 50 (protein, listed as Mus musculus)
chain: MRIFRPWRLRCPALHLPSFPTFSIKCSLPPLPTDEDMCKSVTTGEWKKVFYEKMEEVKPADSWDFIIDPNLKHNVLAPGWKQYLELHASGRFHCSWCWHTWQSPHVVILFHMYLDKAQRAGSVRMRVFKQLCYECGTARLDESSMLEENIESLVDNLITSLREQCYGERGGHYRIHVASRQDNRRHRGEFCEACQEGIVHWKPSEKLLEEEATTYTFSRAPSPTKPQAETGSGCNFCSIPWCLFWATVLMLII
- cell-surface expression of olfr62 [2, 4]: Increased cell-surface staining
